Source: publication PMC3622683, “Purification, Gene Cloning, and Biochemical Characterization of a β-Glucosidase Capable of Hydrolyzing Sesaminol Triglucoside from Paenibacillus sp. KB0549” (PLoS ONE, 2013)

Legend:
Settings in all cases: pH 7.0, 37°C, potassium phosphate
purified protein [1] = substrate: O=[N+]([O-])c1ccc(O[C@@H]2OC[C@@H](O)[C@H](O)[C@H]2O)cc1; experiment: purified protein; type: biochemical, Paenibacillus relictisesami
purified protein [2] = substrate: O=[N+]([O-])c1ccc(O[C@@H]2O[C@H](CO)[C@@H](O[C@@H]3O[C@H](CO)[C@@H](O)[C@H](O)[C@H]3O)[C@H](O)[C@H]2O)cc1; experiment: purified protein; type: biochemical, Paenibacillus relictisesami
purified protein [3] = substrate: O=[N+]([O-])c1ccc(O[C@@H]2O[C@H](CO)[C@@H](O)[C@H](O)[C@H]2O)cc1; experiment: purified protein
purified protein [4] = substrate: O=[N+]([O-])c1ccc(O[C@@H]2O[C@H](CO)[C@H](O)[C@H](O)[C@H]2O)cc1; experiment: purified protein
[5] = substrate: OC[C@H]1O[C@@H](OC[C@H]2O[C@@H](Oc3cc4c(cc3[C@H]3OC[C@H]5[C@@H]3CO[C@@H]5c3ccc5c(c3)OCO5)OCO4)[C@H](O[C@@H]3O[C@H](CO)[C@@H](O)[C@H](O)[C@H]3O)[C@@H](O)[C@@H]2O)[C@H](O)[C@@H](O)[C@@H]1O; experiment: HPLC of STG hydrolysis, initial velocities; type: biochemical, Paenibacillus relictisesami
Procedure: HPLC of STG hydrolysis, initial velocities on rPSTG (recombinant PSTG, STG-hydrolyzing β-glucosidase) | k cat and K m values of rPSTG for hydrolysis of STG were determined

B1: rPSTG (recombinant PSTG, STG-hydrolyzing β-glucosidase) (Paenibacillus relictisesami) (protein)
chain: MSERRDLKALISQMTLEEKASLCTGRDTWHTQPIERLGIPSVMMTDGPHGLRKQKAASDHLGLFDSVPSTCFPSAVGVASSWNRDLIERMGQALGKECQAENVAVLLGPGANIKRSPLCGRNFEYFSEDPYLSSEMAAHHIMGVQSQGVGTSLKHFAANNQEYRRMTSDSVVNERTLREIYLTSFEGAVKKARPWTVMCSYNKVNGEYAAENERLLTGILKQEWGHEGFVVSDWGAVNDRVKSLAAGLELEMPHEGAGTKQIIEAVESGQLAEEKLDLAVERLLTVIFRSVDQHKEGAVYDPEAHHKLAREIAAESMVLLKNEDRILPLKREGTIAVIGELAKVPRYQGSGSSQIKPTRLDDIVFELAASAGEHARVTYTQGYDLKSDDINAVLTEEALQAAKEASVAVLFAGLPKRYESEGFDRKHMRMPDNQIALIEAVAAVQPNLVVVLCNGAPIEMPWLPQAKAVLEAYLGGQALGGAIADLLFGDANPSGKLAETFPVQLSDNPSFLNFPGEGDRVEYREGLFVGYRYYDKKQLRPLFPFGHGLSYTTFAYSNLSVDKKEILDTETLKVCVNVKNTGERAGKEIVQLYVRDVESSVIRPLKELKGFDKVFLAPGEEKTLTFELGKRSFAYYDPSIKDWMVETGAFEILIGRSSQDIVLAETVMVRSTVSRKIVYHRNSTVADLMLTEKGAAFAQKLRGMIPFGETVGEEYAEMLEAFKESVPLRGLISFSAGRFTEEDLSKLLEYLNG
notes: full-length 753 aa, 83,298 Da, no signal peptide; expressed from pDEST17 in E. coli BL21-AI, HisTrap purified (tag cleavage not mentioned); likely tetramer, 310 kDa; GH3
Work on B1 yielded a Km (purified protein [1]) of 35700 ± 12200 µM, a kcat (purified protein [1]) of 69 s⁻¹ and a kcat/Km (purified protein [1]) of 1930 M⁻¹ s⁻¹. The Km (purified protein [2]) was 230 ± 40 µM, the kcat (purified protein [2]) was 0.47 ± 0.03 s⁻¹ and the kcat/Km (purified protein [2]) was 2040 M⁻¹ s⁻¹. It also gave a Km (purified protein [3]) of 100 ± 10 µM, a kcat (purified protein [3]) of 44.3 s⁻¹ and a kcat/Km (purified protein [3]) of 426000 M⁻¹ s⁻¹. For the same protein, the Km (purified protein [4]) was 29000 ± 7000 µM, the kcat (purified protein [4]) was 2.06 s⁻¹ and the kcat/Km (purified protein [4]) was 71 M⁻¹ s⁻¹. It also gave a Km [5] of 1400 ± 400 µM and a kcat [5] of 9.3 ± 0.8 s⁻¹.
